From the DeepSol protein solubility set

test: soluble on expression in E. coli; label from the status in PepcDB or PDB records

| Sequence | soluble on expression in E. coli |
| --- | --- |
| MTQTPDREKALELAVAQIEKSYGKGSVMRLGDEARQPISVIPTGSIALDVALGIGGLPRGRVIEIYGPESSGKTTVALHAVANAQAAGGVAAFIDAEHALDPDYAKKLGVDTDSLLVSQPDTGEQALEIADMLIRSGALDIVVIDSVAALVPRAELEGEMGDSHVGLQARLMSQALRKMTGALNNSGTTAIFINQLRDKIGVMFGSPETTTGGKALKFYASVRMDVRRVETLKDGTNAVGNRTRVKVVKNKCLAPFKQAEFDILYGKGISREGSLIDMGVDQGLIRKSGAWFTYEGEQLGQGKENARNFLVENADVADEIEKKIKEKLGIGAVVTDDPSNDGVLPAPVDF | soluble |
| MNALPPAIFLMGPTAAGKTDLAIELSKVLPCELISVDSALVYRGMDIGTAKPSKAQLAEFPHRLIDILDPAQSYSAADFRSDALAAMAQITARGNIPLLVGGTMLYFKALLDGLADMPAANAAVRAQLEADAQAFGWQSLHDQLAVVDPVSAARIHPNDPQRLIRALEVYRVSGMSMTAHREQQTAQSTEAAASGCQQLPYTVANLAIAPADRKVLHQRIALRFEQMLDQGFLDEVLALRSRGDLHAGLPSIRAVGYRQVWDHLDGKLTREEMQERGIIATRQLAKRQFTWLRSWDDLHWLDSLASDNLSRALKYLGSVSILSLEHHHHHH | not soluble |
| SKNPHLPQPVRVTVGPNAPPVFGMFYPDRYMVGVDCILVDGMFVSRSRFEKLGGSLMAKWYRSIRVVDTAEPLGAWLERHNLPVFTGKARQRRQRGAPSTN | soluble |
| MGSDKIHHHHHHMSVSPEFTRGKIHDVVVKPLGKFLDERGWLAELFRSDETDPATMPVMAYVSMTRPGIVRGPHEHVDQTDWFCFIGPSNFKVYLWDSRPDSPTHGVKQTLFAGIDAPMSVIVPPGVVHAYKNVGGVDGIVFNAPNRLYAGEGKSSPVDEIRHEDVAGSPFILD | not soluble |
| MQHSLGLIEVSGMSLAITVADVMAKTAQIRLIGVERTIGSGWMLVKIAGDVAAVRTALSAGEETARAHQGFVACTTIARPAKGTGELVSTTKPPRAEPVQKITVLPAVALTASAAHTTTGPESVQEDPDAEKAVPPIREAVEGSTGNIIQVDAINDPVETAREISKPNASAKSPPAEYGEKQSVATVKAFPVMGDIATDLDIPTASARSVAVAQQVKPGISLHQFHYQEKPDDETADAGSQQTGETKQAVAISAKLLVTCKICGDPSCPRHKGQPRSRCIHNQKSVLR | not soluble |
| MSRRSQWKQVANGMLGDVSKARSVEERENVPEKACGFCKNFSENAYASDGRGYCKKLKVGSDIKVNPPVYVMEGQASLTVLFNSDGAGCEYFNRQDLIDTDGNEVNDPSYRRVQRQMEKAIK | not soluble |
| ESICLIGHSLGGDLARYFASEFEEVKKLILLDGGYLDLDKILPLDTELEETKNYIKSQIVSDLDVLTSKEKSEAKHWSENMEKAVRQSYHWNVEYNRYELAINYENIEAILRLRRKIQAFKREVGDTLFISPRYPNEATWREEALKELPDYFDTIFLENFGHELYTQAPKEIASLMNEWLAYFL | not soluble |
| MSVTAPSARPAPDHHAQFLQLLDTSLTQNAFIKLVLAKHVGPEADLQRLIIKQLTVKEQPCLSFVYRYKTRDITKNFSLDEGIAAIAELLPAAFKNAHLLTLTDEVQLEYSKKGKSSLFKGKPQTQRDAPSAEHNREKNRFLDLSRPFLADLGVTNKQHELIPAMSRKWKQINKFIEVFSHALGSSPIKLDQPVRVADFGSGKGYLTFAIHDYLRNTLKAEGEVTGVELREDMVTLCNAAAQRLEHPGLVFKCGDVRSVAPSQLEVMIALHACDIATDYAIHTGIRSGAAIIMCSPCCHKQIRQQIQSPQLLKPMLQYGLHLGQQAEMVTDSLRALFLEACGYETKVFEFISLEHTNKNKMILAVKRAEPQDPSQLLARIEELKAFYQISEHCLETLLKADGYLG | soluble |
| MSLKNLILAIESSCDDSSIAIIDKNTLECKFHKKISQELDHSIYGGVVPELAARLHSEALPKMLKQCKEHFKNLCAIAVTNEPGLSVSLLSGISMAKTLASALNLPLIPINHLKGHIYSLFLEEKISLDMGILLVSGGHTMVLYLKDDASLELLASTNDDSFGESFDKVAKMMNLGYPGGVIIENLAKNAKLKNISFNTPLKHSKELAFSFSGLKNAVRLEILKHENLNEDTKAEIAYAFENTACDHIMDKLEKIFNLYKFKNFGVVGGASANLNLRSRLQNLCQKYNANLKLAPLKFCSDNALMIARAAVDAYEKKEFVSVEEDILSPKNKNFSRIEGHHHHHH | soluble |
| MNKFVKSLLVAGSVAALAACSSSNNDAAGNGAAQTFGGYSVADLQQRYNTVYFGFDKYDITGEYVQILDAHAAYLNATPAAKVLVEGNTDERGTPEYNIALGQRRADAVKGYLAGKGVDAGKLGTVSYGEEKPAVLGHDEAAYSKNRRAVLAY | soluble |
| MTHAPTTTPLRTAAKLLAAGAAALTLNSCAYDGIKVIVINMFQGEAQPFIDRYDLKEKVYIAGLSPDAPNLLCNYDGICQVTTGMGYANAAATLSALLYRSKLDLTQTYFVIAGIAGIDPGQGTVGSAAWARYAVDYGLSHEIDAREMPAAWPYGYFGIGTKGPGEKPPMNYRTEVFRLNEALLQRAYALSKPVTLEDSPEAIAFRKHYAYAPANQPPAVIQCDVASADTWWAGRNLGQRARDWTKTMTDGKGTYCTTAQEDNATLEVLARGARAGKVDFSRVALLRTGSDFDRPYDGQSAADGLVNYAQQGGFVPATHNLVNAAKPLLDDIVLRWPQWAQGVPANLEHHHHHH | not soluble |
| MGSDKIHHHHHHMAKFDIITIEDKIQQLLEDGFDQASFIYEFLSFYDISKTAITRIRKEQSGEIKNKLYYKTVPTDKSVVAGVAEIEEAIKDKKSQPRYIIVTNFVDFAAKDTKTFDTLQIPFKDLPTYADFFLAWNGVEKVDYAKENPADIKAAERFTRLYDELKKINHFDDRSQEEKEFNLFLIRLLFLLFAEDTEIMKKGIFTNAIKTRSREDGSDLNTLFNQIFASLDIANRLSQENWLQEFPYVNGKLFTDASTDLVFDKKTRKLILEAGELLNWNEINPDILGAMIQTVASSEHRSSSGMHYTSVENIMKVIKPLFLDELTANFQTIVDKINENEDKDITERTRRENRAAYEKELSTLHEHLSKIKFFDPACGSGNFLIITYKELRRLEIRLLKALRELRQDGKIDFFETSKISLNQFYGIELDDFAHEVARLSLWIAEYQMNLEALNEINLQSAFLPLRDAGNITQGNALRLDWDKVVPHTPTDEIYLIGNPPYIGAKIAK | not soluble |
| ADMGEKFDATFKAQVKAAKADMVMLSPKDAYKLLQENPDITLIDVRDPDELKAMGKPDVKNYKHMSRGKLEPLLAKSGLDPEKPVVVFCKTAARAALAGKTLREYGFKTIYNSEGGMDKWLEEGLPSLDRSHHHHHH | soluble |
| MRISNGSGGDNVFTSGRFRRRGAATPLISLDFIVENGQGEILLGQRLNRPAQGYWFVPGGRVCKDETLEAAFARLTQAELGVRLPLAAGTFYGVWQHFYDDNFSGEDFSTHYIVLGFRLRVAESDLRLPDAQHGSYRWLTPEQLLASDNVHENSRAYFSPDAPAVGL | not soluble |
| MGSDKIHHHHHHMRIQQLRYLEKIATTGSINEAAKQLFISQPSLSQAMKELEKEYQVQLFYRHKTGITLTDAGREFINYSRSVLDQVNLLNEHFGQGTVRKRIFSVSAQHYAFVVNAFVELVKEIGGDTYQFTLRETETANVLNDVQTLKSELGVIYLNKFNQTVLSRLIADKDLSFVPLFEARPHVFVGRDNPLTHKQDLTLDDLRDYPYLSYEQGDTSSFYFAEEILSTLPHKKHIRISDRATIFNLMVGLNGYTISSGIISSELNDEKIVAIPLKVDDAMTLGYLRHKKIELSATAQRYLTLLKQHIQGYGFDVFNDN | not soluble |
| MKTYSEARARLRWYQGRYIDFDGWYGYQCADLAVDYIYWLLEIRMWGNAKDAINNDFKNMATVYENTPSFVPQIGDVAVFTKGIYKQYGHIGLVFNGGNTNQFLILEQNYDGNANTPAKLRWDNYYGCTHFIRPKYKSEGLMNKITNKVKPPAQKAVGKSASKITVGSKAPYNLKWSKGAYFNAKIDGLGATSATRYGDNRTNYRFDVGQAVYAPGTLIYVFEIIDGWCRIYWNNHNEWIWHERLIVKEVFLEHHHHHH | not soluble |
| MGSDKIHHHHHHLSPEDYYGSNDFWNQKSQVEMFMTGIHADLRDKYQMPVTLGEFRSEILISDVTSMGEGVYGPPMTNNLLTKDNTGIDDWYEVYPNIMHINLFIRNVDKEIDYLTGTEKSFYLGQAYGLRAYYYFYLYRTFGGVPLETEPKVTEGSIDITQLYKARSTPEETLEFIKEDINKSEAFFNESDKKMSNQYEWSYHATELLKAKIYMWSAKVTTGLPDDDIAGDHIATLTAVDPNNSDLLTAKKALLNLVNQQFELLPNFADLWTPEGKKNKEIIFALCFNKNELTNWGANWFYNVALFTNATDLDGNKYGPDPLKLLTAGPLRYEYKVPFIEIYDKEDTRLDATFFQYMFEGKIRGACWKKLMGHTDGGTHYYDSDVPVYRYADVLLMLAECENGLGAPDKCAAYINEVRKRAYGDKFEQHKYIAGDYADNEWAILQERDKEFVGEGSRWFDLLRLRDSNGKPFVFSVKAHYGSSLPILTEDKAYMMLWPVNVEVLNGDPEIKQTPGYE | not soluble |
| MIEFFLPMDKIPTTTHQQKKVTVINGKPHFYEPESLKNARDKFTSLLAQHVPPSKLDGPIRLTVKWLFPKIKGSTNGQYKTTKPDTDNLQKLLKDCMTELGFWNDDAQVASEIIEKFWADTVGIYVKVEEL | not soluble |
| MAVKDNYCVIMGGGIGSRFWPFSRESHPKQFLDFFGTGRSLLQMTYDRFARFIPRENILVVTNELYVDKVREQLPEIEPDQILREPTRRNTAPCIAYASYHIYARNPKANIIVAPSDHLILREDEFVRAASEALEFVADHEHLVTLGIRPSRPETGYGYIQMAEEKTGDFIRVKTFTEKPNAEMASIFLASGEFLWNSGMFVWNVESILAAFRKHLPEVTSSLENGLAHFNTPEERRFIDQAFPYCPSISIDFGVMEKADNVLVMPVDFGWADLGTWGSLYELAQKDDAGNASLKTRTLFYEAERNIVTTDNPQKLVVVQGINDCIVAESGNVLLICRAEEEQRIKHFVADAALKYDKEYN | soluble |
| PHPADPRLLIGQHVGAGPMVLASPWPRIVAPADFDTRFQGEARDLVLAHERVHLARGDAQINALVVALQCLCWFNPLVHLGAHRLRLDQEMACDEAVLARRPEARRLYAETLLDTLLAPR | not soluble |
| MSLSLREEALHLHKVNQGKLESKSKVEVRNAKDLSLAYSPGVAEPCKDIHEDINKVYDYTMKGNMVAVVTDGTAVLGLGNIGPEAALPVMEGKAVLFKSFAGVDAFPIALNTNDVDKIVETVKLLEPTFGGVNLEDIAAPNCFIIEERLKKETNIPVFHDDQHGTAIVTVAGLVNALKLSGKSMSSIKVVANGAGAAGIAIIKLLHHYGVRDIVMCDSKGAIYEGRPNGMNDVKNEVAKFTNQDRKDGSLKDVIVDADVFIGVSVAGALTKEMVQSMAKDPIIFAMANPNPEIMPEDAREAGASVVGTGRSDFPNQVNNVLAFPGIFRGALDVRATHINEEMKIAAVEAIASLVSEDELSADYVIPAPFDKRVAPAVAKAVAKAAMETGVARITVDPEEVAEKTRKLTIIGEEGHHHHHH | soluble |
| ILTAGPTVDGRNIEQSVIDDIAETYDPKRYNARINEEHWSWSDKFGSVLSVEKRDDQLFAVLKPNSLLLSTIEKGQLLHTSCEIRANFQGTGKSYLTGLALTDEPASVGTTEMHLSAKEKNKDKSYFSSGATISKDDLSNNIDVDVQEDRKFLSRLKQLLSLGEPDKTQSLEESEDMNEELKELLQAQTAAVTALTAQVTSLAATLNKEESAPVEEENNETELAEKVDALSTKLDDVVTKLSNITDEPNRNLAGVDGDTEY | not soluble |
| MAVNQDTLYVKGDRNVEVTKREVTLGDLVSMECSNRVILPHLKTMKVLKIPENGEKRYVISILKIIACIHEKYPGLEVQNLGETDLIVTYEMQKTPSK | soluble |
